The record followed here is patent publication US20140363434A1 (COMPLIX, published 2014).

Test [1] deals with T1, GST-tagged recombinant human MCL-1 (residues 172 to 327) (human, UniProt Q07820 172-327).
T1 construct: Produced in E. coli and purified by the GST tag; also called recombinant MCL-1
As to the kind of experiment: ELISA: Alphabody (500 nM) captured by coated anti-V5 antibody; five-fold dilutions of GST-MCL-1 detected with anti-GST antibody-HRP; OD 492/630 nm. Background: An ELISA detects its analyte on a solid surface through an enzyme-linked reagent.
Protocol: (§1) Alphabody (500 nM) was captured by immobilized anti-V5 antibody (5 microg/ml) to a microtiterplate. Binding of five-fold dilutions of Glutathione S transferase (GST)-tagged recombinant BCL-2 family proteins MCL-1 (FIG. 26A), BCL-XL (FIG. 26B) and BCL-2a (FIG. 26C) was detected using a anti-GST antibody conjugated to Horse Radish Peroxidase. Plates were read at 492 nm and 630 nm.
(§2) Maxisorp Nunc plates were coated with 100 microl anti-V5 antibody (5 microg/ml) in carbonate buffer pH 9.6 overnight at 4° C. The next day, the plates were washed 3 times with Tris Buffered Saline containing 0.05% Tween 20 (TBST) and blocked with TBS containing 0.1% BSA and 0.5% gelatin for 2 h at 37° C. […] Plates were washed 10 times with TBST and five-fold dilutions of Glutathione S transferase (GST) tagged recombinant BCL-2 family proteins (MCL-1, BCL-XL and BCL-2a) were added and further incubated for 2 h at RT while shaking. Binding of GST-tagged recombinant BCL-2 family proteins was detected using an anti-GST antibody conjugated to Horse Radish Peroxidase. Signals were developed by reacting with ortho-phenylenediamine and the reaction was stopped with 4 M H₂SO₄ when the OD reached a value between 2 and 3.

Test [2] has as its target T2, GST-tagged recombinant human BCL-2 isoform alpha (BCL-2a) with a C-terminal deletion of 32 amino acids (human, UniProt P10415 1-207).
T2 construct: Produced in E. coli and purified by the GST tag; not shown: Glutathione S Transferase (GST) tag at the N-terminus
Kind of test: ELISA: Alphabody (500 nM) captured by anti-V5 antibody, five-fold dilutions of GST-BCL-2a, anti-GST-HRP detection; printed as 'binding affinity'.

In test [3] the target is T3, GST-tagged recombinant human BCL-XL with a C-terminal deletion of 24 amino acids (human, UniProt Q07817 1-209).
T3 construct: Produced in E. coli and purified by the GST tag; not shown: Glutathione S Transferase (GST) tag at the N-terminus
T3 sequence (Q07817 1-209, stated change not applied, form in doubt): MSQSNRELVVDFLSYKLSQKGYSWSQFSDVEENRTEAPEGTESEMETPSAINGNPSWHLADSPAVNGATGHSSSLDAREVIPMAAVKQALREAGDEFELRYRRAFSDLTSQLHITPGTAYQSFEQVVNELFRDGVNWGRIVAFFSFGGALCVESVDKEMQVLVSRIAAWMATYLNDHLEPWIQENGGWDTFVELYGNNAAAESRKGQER
Kind of test: ELISA: Alphabody (500 nM) captured by anti-V5 antibody, five-fold dilutions of GST-BCL-XL, anti-GST-HRP detection; printed as 'binding affinity'.

Test [4] deals with T1, GST-tagged recombinant human MCL-1 …. Kind of test: ELISA: Alphabody (500 nM) captured by anti-V5 antibody, five-fold dilutions of GST-MCL-1, anti-GST-HRP detection; printed as 'binding affinity'.
Protocol: as §1, §2
Test [5] deals with T3, GST-tagged recombinant human BCL-XL …. As to the kind of experiment: ELISA: Alphabody (500 nM) captured by coated anti-V5 antibody; five-fold dilutions of GST-BCL-XL detected with anti-GST antibody-HRP; OD 492/630 nm.
Protocol: (§3) Alphabody (500 nM) was captured by immobilized anti-V5 antibody (5 microg/ml) to a microtiterplate. Binding of five-fold dilutions of Glutathione S transferase (GST)-tagged recombinant BCL-2 family proteins MCL-1, BCL-XL and BCL-2a was detected using a anti-GST antibody conjugated to Horse Radish Peroxidase. Plates were read at 492 nm and 630 nm.
as §2
Test [6] addresses T1, GST-tagged recombinant human MCL-1 …. Kind of test: ELISA: Alphabody (500 nM) captured by coated anti-V5 antibody; five-fold dilutions of GST-tagged protein detected with anti-GST antibody-HRP; OD 492/630 nm.
Protocol: as §3, §2
The target in test [7] is T3, GST-tagged recombinant human BCL-XL …. The description is as above.
Protocol: as §3, §2
The target in test [8] is T4, MCL-1 in MCL-1 transfected HEK cell lysate (Santa Cruz) (UniProt Q07820 1-350, limits assumed).
T4 construct: The target was spotted as a whole cell lysate on nitrocellulose, not as purified protein; also called MCL-1 cell lysate; Mcl-1 cell lysate
T4 sequence (Q07820 whole entry): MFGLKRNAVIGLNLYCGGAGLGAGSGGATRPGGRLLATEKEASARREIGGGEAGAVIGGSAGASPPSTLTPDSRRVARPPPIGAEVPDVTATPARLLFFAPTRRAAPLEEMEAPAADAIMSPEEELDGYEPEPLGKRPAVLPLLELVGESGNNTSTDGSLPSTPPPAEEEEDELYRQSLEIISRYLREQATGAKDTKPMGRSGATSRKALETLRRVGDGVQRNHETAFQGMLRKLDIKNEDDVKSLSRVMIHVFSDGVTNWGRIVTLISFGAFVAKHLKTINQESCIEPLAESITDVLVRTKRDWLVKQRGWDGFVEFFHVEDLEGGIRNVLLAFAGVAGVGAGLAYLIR
As to the kind of experiment: dot blot: MCL-1 transfected HEK cell lysate spotted on nitrocellulose, incubated with Alphabody, detected with anti-His antibody-HRP.

T1 sequence (Q07820 172-327 limits assumed): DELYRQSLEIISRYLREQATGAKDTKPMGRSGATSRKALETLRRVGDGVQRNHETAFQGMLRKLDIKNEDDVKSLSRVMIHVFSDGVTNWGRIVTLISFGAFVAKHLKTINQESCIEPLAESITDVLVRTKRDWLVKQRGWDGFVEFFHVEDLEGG
T2 sequence (P10415 1-207, stated change not applied, form in doubt): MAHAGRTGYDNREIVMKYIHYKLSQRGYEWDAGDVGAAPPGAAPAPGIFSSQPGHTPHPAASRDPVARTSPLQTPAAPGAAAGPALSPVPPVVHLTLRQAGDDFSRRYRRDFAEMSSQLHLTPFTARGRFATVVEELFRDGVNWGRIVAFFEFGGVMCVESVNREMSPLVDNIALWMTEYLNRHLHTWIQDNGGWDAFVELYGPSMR

B1: MB23_hiR-V5 (designed binder)
chain: MSIEQIQKEITTIQEVIAAIQKYIYTMTGGSGGSGGMSIQQIQAAIRRIQRAIRRIQRAIRRMTGSGGGGSGMSIEEIQKQIAAIQEQIVAIYKQIMAMASHHHHHHGKPIPNPLLGLDST
notes: Cationized Alphabody directed against IL-23, used as the negative control; also called control Alphabody MB23_hiR-V5; cationized MB23
With B1, the binding result in test [1] is “no binding (tested: 200 nM)”.

B2: AB1_pan_hiKR3-V5 (designed binder)
chain: MSIEEIQKQFKRIQKQIKRIAKQIKRMTGGSGGSGGMSIEEIAAQIAAIQLRIIGDQFNIYYMTGSGGGGSGGSIEEIKKSIRAIQKEIKKIQKKIKKMTPHHHHHHHHHHGKPIPNPLLGLDST
notes: Cationized Alphabody with C-terminal His-tag and V5 tag
For B2, the Kd (commonly a measure of binding affinity in units of concentration) is roughly 18.7 nM in test [2], roughly 4.5 nM in test [3] and roughly 1.9 nM in test [4]. For the same molecule, the EC50 (read off the curve) (usually the concentration giving half of the maximal effect) was roughly 4 nM in test [5], roughly 2 nM in test [6], roughly 4 nM in test [7] and roughly 2 nM in test [1].

B3: tat-013 Alphabody (designed binder)
chain: YGRKKRRQRRRMSIEEIQKQIAAIQKQIAAIQKQIYAMTGGSGGGSGGGSGGGSGMSIEEIQKQIAAIQKQIAAIQKQIYAMTGGSGGGSGGGSGGGSGMSIEEIQKQIAAIQKQIAAIQKQIYAMTP
notes: also called tat-tagged control Alphabody scAB013
On to B3, for which the binding result in test [8] was “no binding (tested: 10 uM)”.

B4: AB1_A2aF_hiKR3-V5 (designed binder)
chain: MSIQQIQKQFKRIQKQIKRIEKQIKRMTGGSGGSGGMSIEEITKQIAAIQLRIVGDQVQIYAMTGGSGGGSGGGSGGGSGGSIEEIKKSIRAIQKEIKKIQKKIKKMTPHHHHHHHHHHGKPIPNPLLGLDST
notes: Cationized MCL-1 Alphabody with C-terminal His-tag and V5 tag
With B4, the Kd in test [4] came to 1 nM. Moreover, the “EC50 (read off the curve)” value in test [1] was roughly 1 nM.
